Test results: patent US6730293B1, “Compositions and methods for treating inflammatory diseases of the skin” (CellGate, Inc., priority 1999, dated 2004)
Square brackets hold non-standard residues; d marks the D form. Peptide text beside a SMILES is read from it. * marks the point of attachment. X1 = C[C@]12CCC(=O)C=C1CC[C@@H]1[C@@H]2[C@@H](O)C[C@@]2(C)[C@H]1CC[C@]2(O)C(=O)COC(=O)C*; Biotin = O=C1N[C@H]2[C@H](CS[C@H]2CCCCC(=O)*)N1; Ahx = NCCCCCC(=O)O

Assays:
skin of nude mice = assay: Penetration of hydrocortisone-biotinylated D-arginine conjugates into skin of nude mice; type: in vivo; settings: back of nude mice, in PBS, 30, 60, 120 minutes
Method: Slides were analyzed by fluorescent microscopy.

[1] = test system: CD3+ T cells in inflamed skin; settings: mouse, in vivo
[2] = test system: full thickness human skin grafted onto the back of a SCID mouse; settings: in vivo
[3] = pH dependent stability / release of releasable Cyclosporin A conjugate; type: physicochemical; settings: acidic pH vs physiological pH, absence of serum
From the text: See, e.g., R. E. Handschumacher, et al., Science 226, 544-7 (1984).
Another modification in the design of the releasable conjugate was the use of L-arginine (R), and not D-arginine (r) in the transporter.

[4] = test system: abdominal skin of nude mice; assay: Penetration of Cu-DTPA-r7 complex into skin of nude mice (blue color); type: in vivo; settings: abdominal region of nude mice, 15, 30 and 45 minutes
Method: Metal diethylenetriaminepentaacetic acid (DTPA) complexes were formed by mixing equimolar amounts of metal salts with DTPA in water for 18 hours. At the end of this time, the solutions were centrifuged, frozen and lyophilized. The dried powder was characterized by mass spectrometry and used in solid phase peptide synthesis. The metal-DTPA complexes were attached to polymers of D- or L-arginine that were still attached to solid-phase resin used in peptide synthesis. The metal-DTPA complexes were attached using an aminocaproic acid spacer. The solid phase peptide synthesis techniques were described in Example 1, with the exception that cleavage of the peptide-DTPA -metal complex in trifluoroacetic acid released the metal. The metal is replaced after HPLC purification and lyophilization of the peptide-DTPA complex. Replacement of the metal involved incubation of equimolar amounts of the metal salt with the peptide-aminocaproic acid-DTPA complex and subsequent lyophilization.
Varying concentrations (1 M to 1 mM) of the Cu-DTPA -aca-r7 complex were applied to the abdominal region of nude mice for 15, 30 and 45 minutes. As controls, an equimolar amount of the Cu-DTPA complex was spotted onto the abdominal region.

**Q.** For `C[C@H](NC(=O)[C@H](C)NC(=O)[C@@H](CCCNC(=N)N)NC(=O)[C@@H](CCCNC(=N)N)NC(=O)[C@@H](CCCNC(=N)N)NC(=O)[C@@H](CCCNC(=N)N)NC(=O)[C@@H](CCCNC(=N)N)NC(=O)CCCCCNC(=O)CCCC[C@@H]1SC[C@@H]2NC(=O)N[C@@H]21)C(=O)N[C@@H](CSCC(=O)OCC(=O)[C@@]1(O)CC[C@H]2[C@@H]3CCC4=CC(=O)CC[C@]4(C)[C@H]3[C@@H](O)C[C@@]21C)C(N)=O` ({Biotin-Ahx}-[dR][dR][dR][dR][dR]AAC(X1)-NH2), which “penetration into skin (fluorescent streptavidin staining)” value (skin of nude mice) is on record?
**A.** very little uptake

**Q.** Which “penetration into skin (fluorescent streptavidin staining)” value (skin of nude mice) does the source give for `C[C@H](NC(=O)[C@H](C)NC(=O)[C@@H](CCCNC(=N)N)NC(=O)[C@@H](CCCNC(=N)N)NC(=O)[C@@H](CCCNC(=N)N)NC(=O)[C@@H](CCCNC(=N)N)NC(=O)[C@@H](CCCNC(=N)N)NC(=O)[C@@H](CCCNC(=N)N)NC(=O)[C@@H](CCCNC(=N)N)NC(=O)CCCCCNC(=O)CCCC[C@@H]1SC[C@@H]2NC(=O)N[C@@H]21)C(=O)N[C@@H](CSCC(=O)OCC(=O)[C@@]1(O)CC[C@H]2[C@@H]3CCC4=CC(=O)CC[C@]4(C)[C@H]3[C@@H](O)C[C@@]21C)C(N)=O` ({Biotin-Ahx}-[dR][dR][dR][dR][dR][dR][dR]AAC(X1)-NH2) here?
**A.** effectively entered into and across the epidermis and into the dermis

**Q.** What does the source list for `C/C=C/C[C@@H](C)[C@@H](OC(=O)CSC[C@H](NC(=O)[C@@H](CCCNC(=N)N)NC(=O)[C@@H](CCCNC(=N)N)NC(=O)[C@@H](CCCNC(=N)N)NC(=O)[C@@H](CCCNC(=N)N)NC(=O)[C@@H](CCCNC(=N)N)NC(=O)[C@@H](CCCNC(=N)N)NC(=O)[C@@H](CCCNC(=N)N)NC(=O)CCCCCNC(=O)CCCC[C@@H]1SC[C@@H]2NC(=O)N[C@@H]21)C(N)=O)[C@H]1C(=O)N[C@@H](CC)C(=O)N(C)CC(=O)N(C)[C@@H](CC(C)C)C(=O)N[C@@H](C(C)C)C(=O)N(C)[C@@H](CC(C)C)C(=O)N[C@@H](C)C(=O)N[C@H](C)C(=O)N(C)[C@@H](CC(C)C)C(=O)N(C)[C@@H](CC(C)C)C(=O)N(C)[C@@H](C(C)C)C(=O)N1C` [biotin r7 CsA, B-aca-r7-Cys-O-acyl-Cyclosporin A]?
**A.** presence in CD3+ T cells of inflamed skin [1]: found in all CD3[+] T cells; penetration into human skin [2]: penetrated human epidermis and dermis

**Q.** For `C/C=C/C[C@@H](C)[C@@H](OC(=O)CN(Cc1ccccc1)C(=O)CNCC(=O)N[C@@H](CCCNC(=N)N)C(=O)N[C@@H](CCCNC(=N)N)C(=O)N[C@@H](CCCNC(=N)N)C(=O)N[C@@H](CCCNC(=N)N)C(=O)N[C@@H](CCCNC(=N)N)C(=O)N[C@@H](CCCNC(=N)N)C(=O)N[C@@H](CCCNC(=N)N)C(N)=O)[C@H]1C(=O)N[C@@H](CC)C(=O)N(C)CC(=O)N(C)[C@@H](CC(C)C)C(=O)N[C@@H](C(C)C)C(=O)N(C)[C@@H](CC(C)C)C(=O)N[C@@H](C)C(=O)N[C@H](C)C(=O)N(C)[C@@H](CC(C)C)C(=O)N(C)[C@@H](CC(C)C)C(=O)N(C)[C@@H](C(C)C)C(=O)N1C` [releasable R7 CsA conjugate], which pH stability [3] is on record?
**A.** stable at acidic pH, but labile at physiological pH

**Q.** With “Copper-diethylenetriaminepentaacetic Acid Complex [Cu-DTPA]” as the compound, how does the “blue color on skin after wiping off” value [4] read?
**A.** not where the Cu-DTPA alone was spotted
